Test results reported in patent US20120210456A1 (MENDEL BIOTECHNOLOGY, published 2012).

Target: T1, SALT TOLERANCE HOMOLOG2 (STH2) (Arabidopsis thaliana, UniProt Q9LQZ7 1-331, limits assumed)
T1 construct: also called G1482
T1 sequence: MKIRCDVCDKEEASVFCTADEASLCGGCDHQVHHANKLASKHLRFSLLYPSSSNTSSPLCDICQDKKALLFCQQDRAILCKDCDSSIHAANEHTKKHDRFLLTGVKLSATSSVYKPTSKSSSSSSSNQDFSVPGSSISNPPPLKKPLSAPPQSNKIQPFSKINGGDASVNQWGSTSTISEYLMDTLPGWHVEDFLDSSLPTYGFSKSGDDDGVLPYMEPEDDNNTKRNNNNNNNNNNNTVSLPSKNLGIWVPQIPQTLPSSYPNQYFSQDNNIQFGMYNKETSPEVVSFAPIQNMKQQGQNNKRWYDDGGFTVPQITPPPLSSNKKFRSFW
Experiment: in vitro and protoplast based studies (methods not described)

B1: G1988 (other)
chain: MVSFCELCGAEADLHCAADSAFLCRSCDAKFHASNFLFARHFRRVICPNCKSLTQNFVSGPLLPWPPRTTCCSESSSSSCCSSLDCVSSSELSSTTRDVNRARGRENRVNAKAVAVTVADGIFVNWCGKLGLNRDLTNAVVSYASLALAVETRPRATKRVFLAAAFWFGVKNTTTWQNLKKVEDVTGVSAGMIRAVESKLARAMTQQLRRWRVDSEEGWAENDNV
notes: also called B-box zinc finger transcription factor G1988
binding result: binds
